The supplement of paper PMC10567573

B1: IKZF1 (parent)
chain: RDPFECNMCGYHSQDRYEFSSHIT
B2: ZNF207 (parent)
chain: YQGGPPRPPMGMRPPVMSQGGRY

Variants of: B1
Test: protein stability index of a GFP-peptide fusion (GPS, HEK-293T) (PSI 1-6); higher = more stable
Conditions: c terminus: a fixed tail appended
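Also: lentivirally expressed fusions sorted by FACS into six bins by GFP to DsRed ratio, PSI derived from sequencing read proportions per bin multiplied by bin number.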

Variant	protein stability index
RDPFECNMCGYHSQDRYEFSSIIT [H22I]	1.83
RDPFECNMCGYHSQDRYEFSSRIT [H22R]	1.58
RDPFECNMCGYHSQDRYEFSSCIT [H22C]	2.54
RDPFECNMCGYHSQDRYEFSSVIT [H22V]	1.75
RDPFECNMCGYHSQDRYEFSSWIT [H22W]	1.65
RDPFECNMCGYHSQDRYEFSSFIT [H22F]	1.97
RDPFECNMCGYHSQDRYEFSSTIT [H22T]	2.08
RDPFECNMCGYHSQDRYEFSSQIT [H22Q]	2.02
RDPFECNMCGYHSQDRYEFSSHIF [T24F]	1.95
RDPFECNMCGYHSQDRYEFSSHIP [T24P]	2.32
RDPFECNMCGYHSQDRYEFSSHII [T24I]	2.28
RDPFECNMCGYHSQDRYEFSSHIM [T24M]	1.57
RDPFECNMCGYHSQDRYEFSSHID [T24D]	2.68
RDPFECNMCGYHSQDRYEFSSHIC [T24C]	5.1
RDPFECNMCGYHSQDRYEFSSHIW [T24W]	2.71
RDPFECNMCGYHSQDRYEFSSHIS [T24S]	1.75
RDPFECNMCGYHSQDRYEFSSHIH [T24H]	2.38
RDPFECNMCGYHSQDRYEFSSHIQ [T24Q]	2.18
RDPFECNMCGYHSQDRYEFSSHIY [T24Y]	1.39
RDPFECNMCGYHSQDRYEFSSHIN [T24N]	2.23
RDPFECNMCGYHSQDRYEFSSHIG [T24G]	1.74
RDPFECNMCGYHSQDRYEFSSHIV [T24V]	1.85
RDPFECNMCGYHSQDRYEFSSHIL [T24L]	2.19
RDPFECNMCGYHSQDRYEFSSHIA [T24A]	2.42
RDPFECNMCGYHSQDRYEFSSHIE [T24E]	2.47
RDPFECNMCGYHSQDRYEFSSHIK [T24K]	2.52
RDPFECNMCGYHSQDRYEFSSHIR [T24R]	2.24

Variants of: B2
Test: as above
Conditions: c terminus: native

Variant	protein stability index
YQGGPPLPPMGMRPPVMSQGGRY [R7L]	1.7
YQGGPPGPPMGMRPPVMSQGGRY [R7G]	2.8
YQGGPPMPPMGMRPPVMSQGGRY [R7M]	1.51
YQGGPPCPPMGMRPPVMSQGGRY [R7C]	1.23
YQGGPPIPPMGMRPPVMSQGGRY [R7I]	1.92
YQGGPPSPPMGMRPPVMSQGGRY [R7S]	2.98
YQGGPPRPPMGSRPPVMSQGGRY [M12S]	2.64
YQGGPPRPPMGVRPPVMSQGGRY [M12V]	2.79
YQGGPPRPTMGMRPPVMSQGGRY [P9T]	2.49
YQGGPPRPNMGMRPPVMSQGGRY [P9N]	1.44
YQGGPPRPWMGMRPPVMSQGGRY [P9W]	4.64
YQGGPPRPVMGMRPPVMSQGGRY [P9V]	1.68
YQGGPPRPHMGMRPPVMSQGGRY [P9H]	1.41
YQGGPPRPLMGMRPPVMSQGGRY [P9L]	1.28
YQGGPPRPPMPMRPPVMSQGGRY [G11P]	1.6
YQGGPPRPPMLMRPPVMSQGGRY [G11L]	1.82
YQKGPPRPPMGMRPPVMSQGGRY [G3K]	2.89
YQWGPPRPPMGMRPPVMSQGGRY [G3W]	1.39
YQSGPPRPPMGMRPPVMSQGGRY [G3S]	1.47
YQGGPPRVPMGMRPPVMSQGGRY [P8V]	1.57
YQGGPPRHPMGMRPPVMSQGGRY [P8H]	2.98
YQGGPPRSPMGMRPPVMSQGGRY [P8S]	1.95
YQGGPPRKPMGMRPPVMSQGGRY [P8K]	2.35

Variant	protein stability index
YQGGPPRPPMGMFPPVMSQGGRY [R13F]	2.23
YQGGPPRPPMGMRCPVMSQGGRY [P14C]	2.27
YQGGPPRPPMGMRAPVMSQGGRY [P14A]	1.47
YAGGPPRPPMGMRPPVMSQGGRY [Q2A]	2.19
YGGGPPRPPMGMRPPVMSQGGRY [Q2G]	3.02
YQGGPPRPPMGMRPPVWSQGGRY [M17W]	1.67
YQGGPPRPPMGMRPPVVSQGGRY [M17V]	1.49
YQGGPPRPPMGMRPPVCSQGGRY [M17C]	4
YQGGPPRPPMGMRPPVGSQGGRY [M17G]	2.42
YQGGPPRPPMGMRPPVLSQGGRY [M17L]	1.52
YQGEPPRPPMGMRPPVMSQGGRY [G4E]	2.69
YQGSPPRPPMGMRPPVMSQGGRY [G4S]	3.05
YQGKPPRPPMGMRPPVMSQGGRY [G4K]	2.78
YQGGPPRPPMGMRPPVMSQSGRY [G20S]	1.67
YQGGPPRPPMGMRPPVMSQEGRY [G20E]	2.23
YQGGPPRPPMGMRPPVMSQKGRY [G20K]	2.16
YQGGPPRPPMGMRPPVMSQGQRY [G21Q]	2.1
YQGGPPRPPMGMRPPVMSQGPRY [G21P]	3.63
YQGGPPRPPMGMRPPVMSQGRRY [G21R]	2.27
YQGGPPRPPMGMRPPVMSHGGRY [Q19H]	4.08
YQGGAPRPPMGMRPPVMSQGGRY [P5A]	2.27
YQGGIPRPPMGMRPPVMSQGGRY [P5I]	1.71
YQGGQPRPPMGMRPPVMSQGGRY [P5Q]	2.62

Variant	protein stability index
YQGGPPRPPMGMRPPVMSQGGRM [Y23M]	2.44
YQGGPPRPPMGMRPPVMSQGGRT [Y23T]	1.9
YQGGPPRPPMGMRPPVMSQGGRE [Y23E]	2.37
YQGGPPRPPMGMRPPVMSQGGRC [Y23C]	1.97
YQGGPPRPPMGMRPPFMSQGGRY [V16F]	2.18
YQGGPPRPPMGMRPPHMSQGGRY [V16H]	2.71
MQGGPPRPPMGMRPPVMSQGGRY [Y1M]	3.87
KQGGPPRPPMGMRPPVMSQGGRY [Y1K]	3.55
RQGGPPRPPMGMRPPVMSQGGRY [Y1R]	3.21
AQGGPPRPPMGMRPPVMSQGGRY [Y1A]	3.11
HQGGPPRPPMGMRPPVMSQGGRY [Y1H]	2.91
YQGGPPRPPMGMRPNVMSQGGRY [P15N]	1.72
YQGGPPRPPLGMRPPVMSQGGRY [M10L]	1.4
YQGGPYRPPMGMRPPVMSQGGRY [P6Y]	1.78
YQGGPHRPPMGMRPPVMSQGGRY [P6H]	2.23
YQGGPCRPPMGMRPPVMSQGGRY [P6C]	1.96
YQGGPPRPPMGMRPPVMLQGGRY [S18L]	2.28
YQGGPPRPPMGMRPPVMDQGGRY [S18D]	2.04
YQGGPPRPPMGMRPPVMKQGGRY [S18K]	1.81
YQGGPPRPPMGMRPPVMSQGGHY [R22H]	1.91
YQGGPPRPPMGMRPPVMSQGGDY [R22D]	1.89
YQGGPPRPPMGMRPPVMSQGGKY [R22K]	1.99
